# This sample holds only a part of the variants without activity.
# B1: TPR 5TU (parent)
# chain: GGAUCUUCUCGAUCUAACAAAAAAGACAAAUCUGCCACAAAGCUUGAGAGCAUCUUCGGAUGCAGAGGCGGCAGCCUUCGGUGGCGCGAUAGCGCCAACGUUCUCAACUAUGACACGCAAAACGCGUGCUCCGUUGAAUGGAGUUUAUCAUG
# Variants of: B1
# Assay: polymerase ribozyme fitness, log enrichment relative to wild type (log ratio); higher = more active; in vitro selection for triplet polymerase activity
# Outline: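 Each subunit of a heterodimeric triplet polymerase ribozyme was represented by a PCR-built, transcribed mutant library that underwent triplicate single-round in vitro selection with frozen incubation at −7 °C. Extended constructs were recovered by gel excision, streptavidin-bead capture and RT-PCR, and Illumina sequencing of input and output libraries kept genotypes with ≥10 input reads and ≥1 read per output. Fitness is the logarithm of genotype enrichment relative to wild-type enrichment, from inverse-variance-weighted replicate averages, with a logarithm base of 2.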
row,Variant,polymerase ribozyme fitness (log ratio)
1,GGAUGUUCUCGAUCUAACAAAAAAGACAAAUUUGCCACAAAGCUUGAGAGCAUCUUCGGAUGCAGAGGCGGCAGCCUUCGGUGGCGCGAUGGCGCCAACGUUCUCAACUAUGACGCGCAAAACGCGUGCUCCGUUGAAUGGAGUUUAUCAUG [C5G C32U A91G A115G],≤ -4.2
2,GGAUGUUCUCGAUCUAACAAAAAAGACAAAUCUGCCACAAAGCUUGAGAGCAUCUUCGGAUGCAGAUGCCGCAGCCUUCGGUGGCACGAUAGCGCCAACGUUCUCAACUAUGACACGCAAAACGCGUGCUCGGUUGAAUGGAGUUUAUCAUG [C5G G67U G70C G86A C132G],≤ -4.2
3,GGAUGUUCUCGAUCUAACAAAAAAGACAAAUCUGCCACAAAGCUUGAGAUCAUCUUCGGAUGCAGAGGCGGCAGCCUUCGCUGGCGCGAUACCGCCAACGUUCUCAACUAUGACACGCAAAACGCGUGCUCCGUUGAAUGGAAUUUAUCAUG [C5G G50U G81C G92C G143A],-2.74
4,GGAUGUUCUCGAUCUAACAAAAAAGACAAAUUUGCCACAAAGCUUGAGAGCAUCUUCGGAUGCAGAGGCGGCAGCCUUCGGUGUCGCGAUAGCGCCAACGUUCUCAACUAUGACACGCAAAACGCGUGCUCCGUUGAAUGGAGUUUAUCAUG [C5G C32U G84U],-3.82
5,GGAUGUUCUCGAUCUAACAAAAAAGACAAAUCUGCCACAAAGCUUGAGAGCAUAUUCCGAUGCAGAGGCGGCGGCCUUAGGUGGCGUGAUAGCGCCAACGUUCUCAACUAUGACAAGCAAAACGCGUGCUCCGUUGAGUGGAGUUUAUCAUG [C5G C54A G58C A73G C79A C87U C116A A138G],≤ -4.2
6,GGAUGUUCUCGAUCUAACAAAAAAGACAAAUCUGCAACAAAGCUUGAGAGCAUCUUCAGAUGCAGAGGCGGCGGCCUUCGGUGGUGCGAUAGCGCCAACGUUCUCAACUAUGACACGCAAAACGCGUGCUCCGUUGAAUGGAGUUUAUCAUG [C5G C36A G58A A73G C85U],≤ -4.2
7,GGAUGUUCUCGAUCUAACAAAAAAGACAAAUCUGUCACAAAGCUUGAGAGCAUCUUCGCAUGCAGAGGCGGCAGCCUUCGGUGGCGUGAUAGCGCCAACUUUCUCAACUAUGACACGCAAAACGGGUGCUCCAUUGAAUGGAGUCUAUCAUG [C5G C35U G59C C87U G100U C125G G133A U145C],≤ -4.2
8,GGAUGUUCUCGAUCUAACAAAAAAGACAAAUCUGCCACAAAGCUUGAGAGCAUCUUCGGAUGCAGAGGCGGCAGCCUUCGGUGGCGCGAUAGCGCCAAAGUUCUCAACUAUGACACGCAAAACGCGUGCUCCGUUGAAUGGAGUUUAUCAUG [C5G C99A],-0.989
9,GGAUGUUCUCGAUCUAACAAAAAAGACAAAUCUGCCAGAAAGCUUGAGAGCAUCUUCGGAUGCAGAGCCGGCAGCCUUCGGUGGCGCGAUAGCGCCAACGUUCUCAACUAUGACACGCAAAACGCGUGCUCCGUAGAAUGAAGUUUAUCAUG [C5G C38G G68C U135A G141A],≤ -4.2
10,GGAUGUUCUCGAUCUAACAAAAAAGACAAAUCUGCCACAAAGCUUGAGAGCAUAUUCGGAUGCACGGGCGGCAGCCUUCGGUGGUGCGAUAGCGCCAACGUUCUCAACUAUGACACGCAAAACGCGUGCUCCGUUGAAUGGAGUUUAUCAUG [C5G C54A G65C A66G C85U],≤ -4.2
11,GGAUGUUCUCGAUCUAACAAAAAAGACAAAUCUGCCACAAAGCUUGAGAGCAUCUUCGGAUGCAGAGGCGGCAGCCUUCGGUGUCGCGAUAGCGCCAACGUUCUCAACUAUGACACGCAAAACGCGUGCUCCGUUGAAUGGAGUUUAUCAUG [C5G G84U],-2.38
12,GGAUGUUCUCGAUCUAACAAAAAAGACAAAUGUGCCACAAAGCUUGAGAGCAUCUUCGGAUGCAGAGGCGGUGGCCUUCGGUGGCGCGAUGGCGCCAACGUUCUCAACUAUGACACGCUAAACGCGUGCUCCGUUGAAUGAAGUUUAUCAUG [C5G C32G C72U A73G A91G A119U G141A],≤ -4.2
13,GGAUGUUCUCGAUCUAACAAAAAAGACAAAUCUGCCACAAAGCUUGAGAGCAUCUUCGGAUGCAGAGGCGGCAGCUUUCGGUGGCGCGAUAGCGCCAACGUUCUCAACUAUGACACGCAAAACGCGUGCUCCGUUGAAUGGAGUUUAUCAUG [C5G C76U],-0.335
14,GGAUGUUCUCGAUCUAACAAAAAAGACAAAUCUGCCACAAAGCUUGAGAGCAUGUGCGGAUGCAGAGGCGGCAGCCUUCGGUGGCGCGAUAGCGUCAACGUUCUCAACUAUGACACGCAAAACGUGUGAUCCUUUGAAUGGAGUUUAUCAUG [C5G C54G U56G C95U C125U C129A G133U],≤ -4.2
15,GGAUGUUCUCGAUCUAACAAAAAAGACAAAUCUGCCACAAAGCUUGAGAGCAUCUUCGGAUGCAGAGGCGGCAGCCUUCGGUGGCGCGAUAGCGCCAACGUUCUUAACUAUGACACGCAAAACGCGUGCUCCGUUGAAUGGAGUUUAUCAUG [C5G C105U],-0.0507
16,GGAUGUUCUCGAUCUAACAAAAAAGACAAAUCUGCCACAAAGCUUGACAGCAUCUUCGGAUGCAGAGGCGGCAGCCAUCGGUGGAGCGAUAGCGCCAACAUUGUCAACUAUGACACGCAAAACGAGUGCUCCGUUGAAUGGAGUUUAUCAUG [C5G G48C U77A C85A G100A C103G C125A],≤ -4.2
17,GGAUGUUCUCGAUCUAACAAAAAACACAAAUCUGCCACAAAGCUUGAGAGCAUAUUCGGAUGCAGAGGCGGCAGGCUUCGGUUGCGCGAUAGCGCCAACGUUCUCAACUAUGACACGCAAAACGCGUGCUCCGUUGAAUGGAGUUUAUCAUG [C5G G25C C54A C75G G83U],≤ -4.2
18,GGAUGUUCUCGAUCUAACAAAAAAGACAAAUCUGCCACAAAGCUUGAGAGCAUCUUCGGAUGCAGAGGCGGCAGCCUUCGGUGGCGCGAUAGAGCCAACGUUCUCAACUAUGACACGCAAAACGCGUGCUCCGUUGAAUGGAGUUUAUCAUG [C5G C93A],-2.55
19,GGAUGUUCUCGAUCUAACAAAAAAGACAAAUCUGCCACAAAGCUUGAGAGCAUCUUCGGAUGCAGAGGCGGCAGCCUUCGGUGGAGCGAUAGCGCCAACGUUCUCAACUAUGACAAGCAAAACGCGUGCUCCGUUGAAUGGAGUUUAUCAUG [C5G C85A C116A],0.0205
